Assays:
Assay in all cases: ITC
[1] = target: T1, H3K4ac (1–19) peptide (Homo sapiens); settings: domain or fragment; chains chain; modification not given; acetyl-Lys4 (mature histone numbering; entry K5); terminal caps or added residues not given
T1 chain: ARTKQTARKSTGGKAPRKQ

[2] = target: Unmodified H3 (1–19) (Homo sapiens); settings: domain or fragment; chains chain; modification not given
[3] = target: T2, H3K14ac (1–19) peptide (Homo sapiens); settings: domain or fragment; chains chain; modification not given; acetyl-Lys14 (mature histone numbering; entry K15); terminal caps or added residues not given
T2 chain: ARTKQTARKSTGGKAPRKQ

B1: AF9-YEATS domain (residues 1–138) for X-ray analysis and ITC, P42568 1-138 (protein)
chain: MASSCAVQVKLELGHRAQVRKKPTVEGFTHDWMVFVRGPEHSNIQHFVEKVVFHLHESFPRPKRVCKDPPYKVEESGYAGFILPIEVYFKNKEEPRKVRFDYDLFLHLEGHPPVNHLRCEKLTFNNPTEDFRRKLLKA
[1]
  Kd: 320 µM
[2]
  Kd: > 1 mM
[3]
  Kd: > 1 mM

Reference: paper PMC9293779, “Elucidation of binding preferences of YEATS domains to site-specific acetylated nucleosome core particles” (The Journal of Biological Chemistry, 2022)
